# Entries after “also recorded” stand apart in the source; their conditions may differ.
# B1: sCD83: recombinant extracellular domain of human CD83 cleaved from GST fusion, with four extra amino acids (Gly-Ser-Pro-Gly) at the amino terminal (protein, listed as Homo sapiens)
# chain: GSPGTPEVKVACSEDVDLPCTAPWDPQVPYTVSWVKLLEGGEERMETPQEDHLRGQHYHQKGQNGSFDAPNERPYSLKIRNTTSCNSGTYRCTLQDPDGQRNLSGKVILRVTGCPAQRKEETFKKYRAE
# modifications: printed: Gly-Ser-Pro-Gly; (1)..(125) Extracellular domain of human CD83
# notes: recombinant extracellular domain of human CD83 cleaved from GST fusion, with four extra amino acids (Gly-Ser-Pro-Gly) at the amino terminal
# Tests used:
# [1] = tested on: C3H Hearts in BALB/c Recipients; test: Heterotopic heart transplantation, graft survival, C3H to BALB/c; settings: sCD83 100 μg i.p. daily day -1 to 28, sirolimus 2 mg/kg oral day 0-14, anti-CD45RB 100 μg i.v. day 0-14
# Method: (§3) Hearts were removed from donor mice as indicated and transplanted into the peritoneal cavity of recipient mice (i.e., heterotopic transplantation). Recipient mice were treated as indicated, with some treatments beginning prior to transplantation. Survival of the allograft was monitored and scored as follows: “A,” beating strongly; “B,” mild decline in the intensity of pulsation; “C,” noticeable decline in the intensity of pulsation; “D,” complete cessation of cardiac impulses. Mean survival time of the transplanted tissue was determined for each treatment.
# In a first set of experiments, C3H donor mice and BALB/c recipient mice were used. In this set of experiments, sCD83 treatment began on day −1 (i.e., the day prior to transplantation) and lasted until day 28; each day, 100 μg of sCD83 was administered to each mouse by intraperitoneal injection. Sirolimus treatment began on day 0 (i.e., the day of transplantation) and continued until day 14; each day, 2 mg/kg of sirolimus was administered orally to each mouse. Anti-CD45RB treatment began on day 0 and continued until day 14; each day, 100 μg of anti-CD45RB (BioExpress, Inc., West Lebanon, New Hampshire) was administered to each mouse intravenously.
# [2] = tested on: C3H Hearts in C57BL/6 Recipients; test: Heterotopic heart transplantation, graft survival, C3H to C57BL/6
# Method: as §3
# In a further set of experiments, C3H mouse hearts were transplanted into the peritoneal cavity of C57BL/6 mice (results shown in Table 3 and FIG. 7). […] Other treatments included subtherapeutic doses of either anti-CD45RB monoclonal antibody (“mAb”) (i.e., 100 μg/mouse every day from days 0 through 14 by intravenous injection) or sirolimus (i.e., 2 mg/kg every day from days 0 through 14 by oral administration (“p.o.”)).
# [3] = tested on: C57BL/6 Hearts in BALB/c Recipients; test: Intra-abdominal heterotopic heart transplantation, graft survival, C57BL/6 to BALB/c; assay type: in vivo, mouse; settings: sCD83 100 μg i.p. daily day -1 to 7, then every other day to day 28, tacrolimus 8 mg/kg/day oral, MMF 80 mg/kg/day oral
# Method: Treatment with tacrolimus was by daily oral administration of a subtherapeutic dose of 8 mg/kg/day, and treatment with MMF was by daily oral administration of a low dose of 80 mg/kg/day.
# In further experiments, transplant recipients were treated with a shorter course of administrations and a different route of administration.
# [4] = tested on: spleen cells (lymphocytes); test: KLH restimulation of spleen cells from sCD83-treated EAE mice; assay type: in vivo, mouse; settings: sCD83 100 μg daily for ten days, KLH 28 days after last injection, spleen cells ten days later
# Method: In order to induce EAE, mice were immunized with a peptide derived from myelin oligodendrocyte glycoprotein (MOG), a constituent of the myelin sheath surrounding neurons of the central nervous system, and with pertussis toxin (see, e.g., Zinser et al. (2004) J. Exp. Med. 200: 345-351). Beginning ten days later, the mice were inoculated with soluble CD83 (100 μg) every day for ten days. 28 days after the last injection of soluble CD83, mice were injected subcutaneously with keyhole limpet hemocyanin (“KLH,” 10 μg/mouse). Ten days later, spleen cells were removed from the mice and restimulated with different doses of KLH. Lymphocyte proliferation in response to this stimulation was measured by [^3H]-thymidine incorporation.
# [5] = tested on: spleen cells; test: KLH re-stimulation assay, CD83 window of effectiveness; assay type: in vivo, CBA mice; settings: sCD83 100 μg 10 times every second day; KLH after 11 days; spleen cells ten days later
# Method: Mice were evaluated to determine the period of time after administration of CD83 in which a subject would be tolerized to another administered antigen. Soluble CD83 (100 μg) was administered to CBA mice by injection 10 times every second day. After 11 days, treated animals were immunized with keyhole limpet hemocyanin (KLH, 10 μg). Ten days later, spleen cells were removed and re-stimulation assays were performed as described in International patent publication WO 2004/046182, the contents of which are incorporated by reference.
# [6] = tested on: mouse immunostimulatory dendritic cells and mouse T cells; test: Allogenic MLR assay with murine BM-DCs and T cells; assay type: cell-based
# Method: C57/BL6 mice and BALB/C mice (male or female; Charles River, Wiga, Sulzfeld, Germany) were used at the ages of between 1 and 4 months. Generation of bone-marrow-derived dendritic cells (“BM-DCs”) was performed as described in Lutz et al. (1999) J. Immunol. Meth. 223: 77. RPMI 1640 (Life Technologies, Karlsruhe, Germany) was supplemented with 100 U/ml penicillin (Sigma), 100 μg/ml streptomycin (Sigma), 2 mM L-glutamine (Sigma), […] (Sigma), and 10% heat-inactivated filtered FCS (PAA, Colbe, Germany). GM-CSF was used at 200 U/ml (PrepoTech/Tebu, Rocky Hill, N.J.) on days 0, 3, 6 and 8 of the incubation period.
# An allogenic MLR assay was performed as follows: CD4^+ and CD8^+ T cells were isolated from inguinal and […] lymph nodes of BALB/C mice and co-cultured (2×10^5 cells/well) for 3 days with BM-DCs (at different ratios) that had been processed through day 9 of the preparation protocol for BM-DCs. Culture was in 96-well culture dishes, and the media was 200 microliters RPMI 1640 supplemented with 100 U/ml penicillin, 100 µg/ml streptomycin, 2 mM L-glutamine, […], and 10% heat-inactivated filtered FCS. […] The culture supernatants were harvested onto glass fiber filters using an Inotech 1H-110 harvester (Inotech, Dottikon, Switzerland), and filters were counted in a Wallac 1450 microplate counter (Wallac, Turku, Finnland).
# [7] = tested on: B cells of transplant recipient; test: Ex vivo proliferation of transplant recipient B-cells; design: species or system mouse; settings: C3H heart in C57BL/6; sCD83 100 μg daily i.p.; B cells day 8, stimulated with LPS
# Method: Antibody Production Protocols for ex vivo Work: B cell proliferation: C57B1/6 mice were given a heterotopic cardiac allograft from a C3H mouse. Mice were then left untreated or were treated with a daily dose of 100 μg of sCD83 by intraperitoneal injection. Mice were then sacrificed on day 8, which was approximately the mean survival time of untreated mice. B-cells were then harvested from the mouse spleens and pure populations of 10^5 B-cells/well were cultured with 2 μg/mL of LPS to stimulate the cells (with no added sCD83). After 48 hours of culture, ^3H-thymidine was added, and after an additional 18-20 hours of culture, the cells were harvested and ^3H-thymidine incorporation was measured.
# (§1) Eight days after transplantation (when the transplant would typically be rejected in untreated mice), the mice were sacrificed. B cells were purified from recipient mice, cultured, and stimulated with LPS. ^3H-thymidine incorporation was measured as counts per minute (cpm).
# [8] = tested on: B cells of transplant recipient; test: Ex vivo IgM and IgG production by transplant recipient B cells; design: species or system mouse; settings: C3H heart in C57BL/6; sCD83 100 μg daily i.p.; B cells day 8, LPS, 72 hours
# Method: IgM & IgG production: C57B1/6 mice were given a heterotopic cardiac allograft from a C3H mouse. Mice then were left untreated or were treated with a daily dose of 100 μg of sCD83 by intraperitoneal injection. Mice were then sacrificed on day 8, which was approximately the mean survival time of untreated mice. B cells were harvested from the spleens of recipient mice and cultured at 2×10^6 B-cells/well with 20 ug/mL LPS (to induce antibody production, with no added sCD83). After 72 hours of culture, supernatants were harvested and IgM and IgG production measured by ELISA.
# as §1, with “After 72 hours of culture, supernatants were collected and IgM and IgG production” for “^3H-thymidine incorporation”, “using ELISA.” for “as counts per minute (cpm).”
# [9] = tested on: donor-specific allo-antibody (IgM, IgG); test: Allo-antibody in transplant recipient sera (staining of donor splenocytes); assay type: in vivo, mouse; settings: C3H heart in C57BL/6; sera eight days after transplantation
# Method: In these experiments, sera were collected from transplant recipients (from control-treated, sCD83-treated and treatment-naïve individuals). Splenocytes were removed from the transplant donor(s) and incubated with the transplant recipient sera. The binding of antibodies from the allo-anti sera to the surface of the transplant donor splenocytes was monitored selectively using antibodies specific for the Fc-fragments of mouse IgM and IgG. […] Stained cells can be analyzed using FACS.
# In the transplantation procedure, hearts were removed from C3H mice and transplanted into C57BL/6 mice, which were then either treated with sCD83 or left untreated. Sera were collected from the C57BL/6 transplant recipients eight days after transplantation (the approximate time when untreated mice would typically reject the transplant (i.e., show full tissue rejection)). This recipient sera was then used to stain splenocytes from the C3H donors, and allo-antibody binding was detected with FITC-conjugated antibodies specific to either the anti-IgG or anti-IgM Fc-fragment. […] Sera from untreated transplant recipients was also able to stain C3H-donor-derived splenocytes above control levels.
# [10] = tested on: mDCs; test: TNF-α and activation markers in mDCs of PBMCs stimulated with LPS and IFN-γ; assay type: cell-based, cynomolgus monkeys; settings: PBMCs incubated overnight with sCD83; LPS 1 μg/ml and IFN-γ 100 U/ml for 6 hours
# Excerpt: We wished to examine the in vitro functional properties of human sCD83 on peripheral blood DCs, monocytes, and T cells. Mature DCs (“mDCs”) from cynomolgus monkeys were identified using FACS with four-color staining as cells that were HLA-DR positive, lineage negative (i.e. CD3, CD20, CD14, and CD16 negative), and CD11c positive. Intracellular TNF-α, IL-6, and surface markers CD83, CD80, CD86, and CCR5 (which are increased in activated, mature DCs) were also monitored.
# (§2) To evaluate the effect of sCD83 on mDCs, isolated PBMCs (1×10^6 cells) from cynomolgus monkeys were incubated overnight with sCD83. Cells were stimulated with LPS (1 μg/ml) and IFN-γ (100 U/ml) for 6 hours. Intracellular TNF-α levels and surface markers were detected in mDCs using FACS. Results representative of one out of three experiments are shown in FIG. 11; results were expressed as % positive cells and mean fluorescence units (MFU).
# [11] = tested on: monocytes; test: TNF-α and activation markers in monocytes of PBMCs; assay type: cell-based, cynomolgus monkeys; settings: PBMCs incubated overnight with sCD83
# Method: as §2, with “monocytes,” for “mDCs,”, “sCD83 (1×10^6 cells).” for “sCD83. Cells were stimulated with LPS (1 μg/ml) and IFN-γ (100 U/ml) for 6 hours.”, “monocytes” for “mDCs”, “12;” for “11;”
# [12] = tested on: CD4+ T cells; test: Regulatory T cell generation from purified CD4+ T cells; assay type: cell-based, cynomolgus monkeys; settings: CD4+ T cells stimulated for 6 days
# Excerpt: To evaluate the effect of sCD83 on CD4^+ T cells, these cells were purified from cynomolgus monkeys and then stimulated in the presence or absence of sCD83 or anti-CD28 mAb for 6 days. Cells were then stained to identify regulatory T cells (i.e., CD4^+CD25^+ Foxp3^+ cells) and analyzed by FACS.
# [13] = tested on: T cells stimulated with allogeneic mature dendritic cells; test: Regulatory T cell generation by sCD83-treated allogeneic dendritic cells; assay type: cell-based, cynomolgous monkeys; settings: DCs treated with sCD83 50 μg/ml; different DC:T ratios
# Method: Regulatory T cells were also prepared using dendritic cells prepared from cynomolgous monkeys, as follows. Cynomolgous monkey myeloid dendritic cells were generated from CD14^+ monocyte cells in the presence of GM-CSF and IL-4 for 7 days; soluble CD83 at 50 ug/ml was added to some cultures on days 3 through 7, and a maturation cocktail of IL-1(3, IL-6, TNF-α and PGE-2 was added on days 5 through 7. T cells (1×10^6/ml) were isolated by negative selection and stimulated at different ratios with the allogeneic mature dendritic cells that had been either treated or untreated with sCD83 (50 μg/ml). Cells were then stained to identify regulatory T cells (i.e. CD4^+CD25^+ Foxp3^+ cells) and analyzed by FACS.
# [14] = tested on: dendritic cells; settings: soluble CD83 4 μg/ml in final maturation step, cited from earlier work
# [15] = sCD83 100 μg i.p. daily days 1-7 then q.o.d. days 8-16, sirolimus 2 mg/kg p.o. days 0-14, anti-CD45RB mAb 100 μg i.v. days 0-14
molecule,measurement,setting,value
"CO[C@H]1C[C@@H]2CC[C@@H](C)[C@@](O)(O2)C(=O)C(=O)N2CCCC[C@H]2C(=O)O[C@H]([C@H](C)C[C@@H]2CC[C@@H](O)[C@H](OC)C2)CC(=O)[C@H](C)/C=C(\C)[C@@H](O)[C@@H](OC)C(=O)[C@H](C)C[C@H](C)/C=C/C=C/C=C/1C [Sirolimus, sirolimus, reference compound]",MST,[1],21.3 ± 6.2 days
same,MST,[2]; [15],16.7 ± 2.1 days
"C=CC[C@@H]1/C=C(\C)C[C@H](C)C[C@H](OC)[C@H]2O[C@@](O)(C(=O)C(=O)N3CCCC[C@H]3C(=O)O[C@H](/C(C)=C/[C@@H]3CC[C@@H](O)[C@H](OC)C3)[C@H](C)[C@@H](O)CC1=O)[C@H](C)C[C@@H]2OC [Tacrolimus, tacrolimus, reference compound]",MST,[3],16.3 ± 1.0 days
B1,MST,[3],15.8 ± 1.0 days
same,Lymphocyte proliferation in response to KLH ([3H]-thymidine incorporation),[4],"did not induce long-lasting, global immunosuppression"
same,Tolerization to KLH (re-stimulation assay),[5],not tolerized to the antigen
same,Cluster formation between dendritic cells and T cells,[6],inhibited
same,Ability of murine immunostimulatory dendritic cells to stimulate T cells,[6]; [3H]-thymidine,inhibited in a concentration-dependent manner
same,Ex vivo B-cell proliferation (3H-thymidine incorporation),[7],suppresses
same,"Ex vivo antibody production (IgM and IgG, ELISA)",[8],suppresses
same,Allo-antibody activity (donor-specific binding of IgM or IgG),[9],low allo-antibody activity; also recorded: can prevent the induction of an allo-antibody response
same,In vitro production of TNF-α by mDCs,[10],suppressed
same,"Surface expression of mDC activation markers CD83, CD86, CCR5, and CD80",[10],suppressed
same,In vitro production of TNF-α by monocytes,[11],moderately suppressed
same,Surface expression of monocyte activation markers,[11],moderately suppressed
same,Generation of regulatory T cells (CD4+CD25+ Foxp3+ cells),[12],promoted the generation of regulatory T cells
same,Regulatory T cells generated by dendritic cells,[13],increased numbers of regulatory T cells
same,CD14 positive cells,[14]; compared with normally matured DCs,increase
same,Cell surface expression of CD80,[14]; normally matured DCs 96%,66%
same,Cell surface expression of CD83,[14]; normally matured DCs 96%,30%
same,MST,[1],10.0 ± 1.4 days
same,Acute rejection / graft acceptance (in words),[2]; sCD83 100 μg,reduced symptoms of acute rejection
same,MST,[2]; [15],10.7 ± 1.5 days
same,MST,[2]; sCD83 266 ug,14.7 ± 0.6 days
same,MST,[2]; sCD83 400 ug,15 ± 1.0 days
